The values below come from patent US20150344570A1 (published 2015).

T1: FcγRIIb extracellular domain with C-terminal His tag (human, UniProt P31994 43-217)
T1 construct: extracellular domain; also called FcgRIIb; 2b; not shown: His tag at the C terminus
T1 sequence (looked up): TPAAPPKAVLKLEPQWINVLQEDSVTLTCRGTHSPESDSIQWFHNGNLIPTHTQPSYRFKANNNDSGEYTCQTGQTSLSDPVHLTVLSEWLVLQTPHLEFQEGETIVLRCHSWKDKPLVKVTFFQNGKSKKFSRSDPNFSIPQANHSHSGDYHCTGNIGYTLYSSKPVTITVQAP

T2: FcγRIIa R extracellular domain with C-terminal His tag (human, UniProt P12318 34-217)
T2 construct: extracellular domain; also called FcgRIIa R; 2aR; not shown: His tag at the C terminus
T2 sequence (looked up): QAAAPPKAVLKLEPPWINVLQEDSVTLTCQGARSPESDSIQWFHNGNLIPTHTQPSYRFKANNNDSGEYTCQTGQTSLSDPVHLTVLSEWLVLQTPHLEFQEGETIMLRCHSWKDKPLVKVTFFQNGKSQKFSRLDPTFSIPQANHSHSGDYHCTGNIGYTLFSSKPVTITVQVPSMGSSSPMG

B1: GpH7-A5/GpH7-B3 variant S337_16H/GpL16-k0 (antibody, human IgG1, kappa)
heavy 1: not shown
heavy 2: not shown
light: DIVMTQSPLSLPVTPGEPASISCQASESLVHSNRNTYLHWYLQKPGQSPQLLIYKVSNRFSGVPDRFSGSGSGTDFTLKISRVEAEDVGVYYCSQNTHVPPTFGQGTKVEIERTVAAPSVFIFPPSDEQLKSGTASVVCLLNNFYPREAKVQWKVDNALQSGNSQESVTEQDSKDSTYSLSSTLTLSKADYEKHKVYACEVTHQGLSSPVTKSFNRGEC
notes: also called He Ab S337_16H
B2: GpH7-A5/GpH7-B3 variant T335_07I/GpL16-k0 (antibody, human IgG1, kappa)
heavy 1: not shown
heavy 2: not shown
light: B1 light
notes: also called He Ab T335_07I
B3: GpH7-A5/GpH7-B3 variant V266_06M/GpL16-k0 (antibody, human IgG1, kappa)
heavy 1: not shown
heavy 2: not shown
light: B1 light
notes: also called He Ab V266_06M
B4: GpH7-A5/GpH7-B3 variant T335_10E/GpL16-k0 (antibody, human IgG1, kappa)
heavy 1: not shown
heavy 2: not shown
light: B1 light
notes: also called He Ab T335_10E
B5: GpH7-A5/GpH7-B3 variant T335_15Y/GpL16-k0 (antibody, human IgG1, kappa)
heavy 1: not shown
heavy 2: not shown
light: B1 light
notes: also called He Ab T335_15Y
B6: GpH7-A5/GpH7-B3 variant Y296_20W/GpL16-k0 (antibody, human IgG1, kappa)
heavy 1: not shown
heavy 2: not shown
light: B1 light
notes: also called He Ab Y296_20W
B7: GpH7-B3 variant S337_02A/GpL16-k0 (antibody, human IgG1, kappa)
heavy: not shown
light: B1 light
notes: homodimerized: alteration in both H chains; also called Ho Ab S337_02A
B8: GpH7-B3 variant K334_05P/GpL16-k0 (antibody, human IgG1, kappa)
heavy: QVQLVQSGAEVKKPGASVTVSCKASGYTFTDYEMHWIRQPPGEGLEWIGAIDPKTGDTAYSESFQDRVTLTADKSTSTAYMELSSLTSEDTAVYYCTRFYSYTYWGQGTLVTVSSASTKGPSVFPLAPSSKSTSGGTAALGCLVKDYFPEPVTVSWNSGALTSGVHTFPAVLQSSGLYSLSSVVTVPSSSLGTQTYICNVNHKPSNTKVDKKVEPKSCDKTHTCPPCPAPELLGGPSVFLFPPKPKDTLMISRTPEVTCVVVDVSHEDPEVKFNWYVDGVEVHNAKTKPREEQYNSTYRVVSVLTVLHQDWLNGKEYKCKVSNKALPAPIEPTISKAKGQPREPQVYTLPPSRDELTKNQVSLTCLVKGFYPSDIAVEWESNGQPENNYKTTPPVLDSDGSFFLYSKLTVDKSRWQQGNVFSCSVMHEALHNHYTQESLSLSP
light: B1 light
notes: homodimerized: alteration in both H chains; also called Ho Ab K334_05P
B9: GpH7-B3 variant P238_03V/GpL16-k0 (antibody, human IgG1, kappa)
heavy: not shown
light: B1 light
notes: homodimerized: alteration in both H chains; also called Ho Ab P238_03V
B10: GpH7-B3 variant A327_09D/GpL16-k0 (antibody, human IgG1, kappa)
heavy: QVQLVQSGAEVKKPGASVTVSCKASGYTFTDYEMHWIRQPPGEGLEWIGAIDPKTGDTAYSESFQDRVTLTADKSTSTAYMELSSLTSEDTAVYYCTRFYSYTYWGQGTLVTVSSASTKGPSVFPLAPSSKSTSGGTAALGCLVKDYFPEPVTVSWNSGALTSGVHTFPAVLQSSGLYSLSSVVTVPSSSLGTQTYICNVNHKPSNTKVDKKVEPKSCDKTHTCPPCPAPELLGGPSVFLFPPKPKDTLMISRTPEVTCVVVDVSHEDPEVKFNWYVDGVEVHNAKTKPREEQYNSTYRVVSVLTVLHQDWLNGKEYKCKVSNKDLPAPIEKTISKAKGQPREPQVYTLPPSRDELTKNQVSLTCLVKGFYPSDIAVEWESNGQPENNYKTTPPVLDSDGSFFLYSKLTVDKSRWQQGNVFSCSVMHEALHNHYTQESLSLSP
light: B1 light
notes: homodimerized: alteration in both H chains; also called Ho Ab A327_09D
B11: GpH7-B3 variant A330_01G/GpL16-k0 (antibody, human IgG1, kappa)
heavy: not shown
light: B1 light
notes: homodimerized: alteration in both H chains; also called Ho Ab A330_01G
B12: GpH7-B3 variant K334_19Q/GpL16-k0 (antibody, human IgG1, kappa)
heavy: not shown
light: B1 light
notes: homodimerized: alteration in both H chains; also called Ho Ab K334_19Q
B13: GpH7-B3 variant P331_20W/GpL16-k0 (antibody, human IgG1, kappa)
heavy: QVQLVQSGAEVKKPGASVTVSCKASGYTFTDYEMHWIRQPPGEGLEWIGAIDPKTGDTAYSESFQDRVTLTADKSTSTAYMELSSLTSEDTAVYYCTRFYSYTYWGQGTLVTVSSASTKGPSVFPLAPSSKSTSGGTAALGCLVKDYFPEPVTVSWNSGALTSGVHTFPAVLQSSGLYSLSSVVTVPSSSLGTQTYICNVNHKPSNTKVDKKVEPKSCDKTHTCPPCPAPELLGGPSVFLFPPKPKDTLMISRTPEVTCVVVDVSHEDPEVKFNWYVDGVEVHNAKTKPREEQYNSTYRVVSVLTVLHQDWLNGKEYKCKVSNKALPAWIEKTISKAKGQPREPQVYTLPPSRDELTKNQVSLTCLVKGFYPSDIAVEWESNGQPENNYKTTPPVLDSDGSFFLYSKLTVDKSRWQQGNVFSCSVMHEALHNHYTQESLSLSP
light: B1 light
notes: homodimerized: alteration in both H chains; also called Ho Ab P331_20W
B14: GpH7-B3 variant A330_12R/GpL16-k0 (antibody, human IgG1, kappa)
heavy: not shown
light: B1 light
notes: homodimerized: alteration in both H chains; also called Ho Ab A330_12R
B15: GpH7-B3 variant I332_06M/GpL16-k0 (antibody, human IgG1, kappa)
heavy: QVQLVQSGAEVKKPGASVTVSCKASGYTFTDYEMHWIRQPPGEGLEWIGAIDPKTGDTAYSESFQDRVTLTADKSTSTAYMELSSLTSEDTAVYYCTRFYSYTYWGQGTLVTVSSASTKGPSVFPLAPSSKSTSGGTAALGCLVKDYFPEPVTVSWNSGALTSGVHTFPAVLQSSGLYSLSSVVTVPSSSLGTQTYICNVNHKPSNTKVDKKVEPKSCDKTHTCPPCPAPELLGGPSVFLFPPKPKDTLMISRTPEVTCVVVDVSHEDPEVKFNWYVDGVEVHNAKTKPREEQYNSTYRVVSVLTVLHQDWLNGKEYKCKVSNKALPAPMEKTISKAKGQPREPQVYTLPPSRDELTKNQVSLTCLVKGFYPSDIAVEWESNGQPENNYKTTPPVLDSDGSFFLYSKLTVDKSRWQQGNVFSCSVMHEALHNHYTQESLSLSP
light: B1 light
notes: homodimerized: alteration in both H chains; also called Ho Ab I332_06M
B16: GpH7-B3 variant P331_04F/GpL16-k0 (antibody, human IgG1, kappa)
heavy: not shown
light: B1 light
notes: homodimerized: alteration in both H chains; also called Ho Ab P331_04F
B17: GpH7-B3 variant K334_04F/GpL16-k0 (antibody, human IgG1, kappa)
heavy: not shown
light: B1 light
notes: homodimerized: alteration in both H chains; also called Ho Ab K334_04F
B18: GpH7-B3 variant P331_02A/GpL16-k0 (antibody, human IgG1, kappa)
heavy: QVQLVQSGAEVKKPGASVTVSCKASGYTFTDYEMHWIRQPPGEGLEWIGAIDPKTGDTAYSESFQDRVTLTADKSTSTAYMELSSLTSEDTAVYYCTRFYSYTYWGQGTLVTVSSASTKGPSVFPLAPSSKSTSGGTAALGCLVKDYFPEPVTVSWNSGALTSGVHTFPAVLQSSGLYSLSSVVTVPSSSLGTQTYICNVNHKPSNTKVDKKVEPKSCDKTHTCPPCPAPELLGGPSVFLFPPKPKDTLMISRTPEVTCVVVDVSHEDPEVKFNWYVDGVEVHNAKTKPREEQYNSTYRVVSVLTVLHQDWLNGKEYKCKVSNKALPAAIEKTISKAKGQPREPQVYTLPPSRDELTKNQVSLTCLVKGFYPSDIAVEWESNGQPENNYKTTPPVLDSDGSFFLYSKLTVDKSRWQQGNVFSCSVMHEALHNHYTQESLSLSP
light: B1 light
notes: homodimerized: alteration in both H chains; also called Ho Ab P331_02A
B19: GpH7-B3 variant L235_20W/GpL16-k0 (antibody, human IgG1, kappa)
heavy: not shown
light: B1 light
notes: homodimerized: alteration in both H chains; also called Ho Ab L235_20W
B20: GpH7-B3 variant K334_13S/GpL16-k0 (antibody, human IgG1, kappa)
heavy: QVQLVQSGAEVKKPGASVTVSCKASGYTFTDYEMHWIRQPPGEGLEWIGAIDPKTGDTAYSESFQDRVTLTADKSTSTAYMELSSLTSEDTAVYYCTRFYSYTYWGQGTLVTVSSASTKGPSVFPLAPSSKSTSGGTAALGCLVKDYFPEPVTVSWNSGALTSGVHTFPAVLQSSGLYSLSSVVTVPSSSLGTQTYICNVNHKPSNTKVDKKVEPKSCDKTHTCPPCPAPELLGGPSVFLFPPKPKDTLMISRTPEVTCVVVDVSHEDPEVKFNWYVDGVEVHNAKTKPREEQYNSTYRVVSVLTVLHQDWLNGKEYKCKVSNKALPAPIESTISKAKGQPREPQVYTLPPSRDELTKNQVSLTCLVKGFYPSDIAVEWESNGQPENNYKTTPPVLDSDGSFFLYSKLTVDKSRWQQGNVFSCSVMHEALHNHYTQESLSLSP
light: B1 light
notes: homodimerized: alteration in both H chains; also called Ho Ab K334_13S
B21: GpH7-B3 variant P271_08L/GpL16-k0 (antibody, human IgG1, kappa)
heavy: not shown
light: B1 light
notes: homodimerized: alteration in both H chains; also called Ho Ab P271_08L
B22: GpH7-B3 variant A327_10E/GpL16-k0 (antibody, human IgG1, kappa)
heavy: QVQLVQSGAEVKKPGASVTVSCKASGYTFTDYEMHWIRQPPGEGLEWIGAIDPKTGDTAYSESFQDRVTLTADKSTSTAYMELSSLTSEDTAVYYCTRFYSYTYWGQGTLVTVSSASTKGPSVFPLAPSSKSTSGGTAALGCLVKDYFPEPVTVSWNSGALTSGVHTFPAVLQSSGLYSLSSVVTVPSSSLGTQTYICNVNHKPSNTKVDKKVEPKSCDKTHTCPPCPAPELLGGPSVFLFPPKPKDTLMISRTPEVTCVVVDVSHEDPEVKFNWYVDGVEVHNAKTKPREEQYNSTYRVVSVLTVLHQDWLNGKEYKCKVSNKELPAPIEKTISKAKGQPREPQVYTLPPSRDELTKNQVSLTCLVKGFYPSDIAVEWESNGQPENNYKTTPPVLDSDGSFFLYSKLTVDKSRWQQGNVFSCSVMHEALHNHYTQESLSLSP
light: B1 light
notes: homodimerized: alteration in both H chains; also called Ho Ab A327_10E
B23: GpH7-B3 variant P331_16H/GpL16-k0 (antibody, human IgG1, kappa)
heavy: not shown
light: B1 light
notes: homodimerized: alteration in both H chains; also called Ho Ab P331_16H
B24: GpH7-B3 variant L328_14T/GpL16-k0 (antibody, human IgG1, kappa)
heavy: not shown
light: B1 light
notes: homodimerized: alteration in both H chains; also called Ho Ab L328_14T
B25: GpH7-B3 variant G237_20W/GpL16-k0 (antibody, human IgG1, kappa)
heavy: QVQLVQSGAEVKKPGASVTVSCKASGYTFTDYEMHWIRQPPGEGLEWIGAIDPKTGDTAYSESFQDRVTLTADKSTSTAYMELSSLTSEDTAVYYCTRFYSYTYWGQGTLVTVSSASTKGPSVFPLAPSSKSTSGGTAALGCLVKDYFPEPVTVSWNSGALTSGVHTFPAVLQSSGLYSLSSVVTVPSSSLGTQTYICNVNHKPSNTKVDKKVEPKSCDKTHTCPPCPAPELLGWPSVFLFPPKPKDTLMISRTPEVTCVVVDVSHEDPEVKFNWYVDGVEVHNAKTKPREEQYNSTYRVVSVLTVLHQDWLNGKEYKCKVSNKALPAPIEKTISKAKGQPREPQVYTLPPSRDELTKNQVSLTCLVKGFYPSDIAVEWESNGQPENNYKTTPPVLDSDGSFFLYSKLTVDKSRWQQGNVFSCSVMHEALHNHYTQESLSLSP
light: B1 light
notes: homodimerized: alteration in both H chains; also called Ho Ab G237_20W
B26: GpH7-B3 variant K326_07I/GpL16-k0 (antibody, human IgG1, kappa)
heavy: not shown
light: B1 light
notes: homodimerized: alteration in both H chains; also called Ho Ab K326_07I
B27: GpH7-B3 variant K326_04F/GpL16-k0 (antibody, human IgG1, kappa)
heavy: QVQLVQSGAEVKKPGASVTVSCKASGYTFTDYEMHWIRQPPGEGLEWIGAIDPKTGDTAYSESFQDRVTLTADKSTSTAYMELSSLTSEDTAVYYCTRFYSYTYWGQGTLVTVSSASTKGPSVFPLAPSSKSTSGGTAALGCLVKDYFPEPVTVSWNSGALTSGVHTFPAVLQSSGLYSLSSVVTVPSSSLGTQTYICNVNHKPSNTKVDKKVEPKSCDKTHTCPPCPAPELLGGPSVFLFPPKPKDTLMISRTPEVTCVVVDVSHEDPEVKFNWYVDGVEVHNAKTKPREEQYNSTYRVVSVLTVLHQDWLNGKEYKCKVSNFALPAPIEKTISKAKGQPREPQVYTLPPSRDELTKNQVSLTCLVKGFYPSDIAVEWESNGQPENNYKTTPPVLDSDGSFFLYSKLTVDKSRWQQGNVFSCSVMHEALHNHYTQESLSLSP
light: B1 light
notes: homodimerized: alteration in both H chains; also called Ho Ab K326_04F
B28: GpH7-B3 variant K326_15Y/GpL16-k0 (antibody, human IgG1, kappa)
heavy: not shown
light: B1 light
notes: homodimerized: alteration in both H chains; also called Ho Ab K326_15Y
B29: GpH7-B3 variant K334_10E/GpL16-k0 (antibody, human IgG1, kappa)
heavy: not shown
light: B1 light
notes: homodimerized: alteration in both H chains; also called Ho Ab K334_10E
B30: GpH7-B3 variant K326_20W/GpL16-k0 (antibody, human IgG1, kappa)
heavy: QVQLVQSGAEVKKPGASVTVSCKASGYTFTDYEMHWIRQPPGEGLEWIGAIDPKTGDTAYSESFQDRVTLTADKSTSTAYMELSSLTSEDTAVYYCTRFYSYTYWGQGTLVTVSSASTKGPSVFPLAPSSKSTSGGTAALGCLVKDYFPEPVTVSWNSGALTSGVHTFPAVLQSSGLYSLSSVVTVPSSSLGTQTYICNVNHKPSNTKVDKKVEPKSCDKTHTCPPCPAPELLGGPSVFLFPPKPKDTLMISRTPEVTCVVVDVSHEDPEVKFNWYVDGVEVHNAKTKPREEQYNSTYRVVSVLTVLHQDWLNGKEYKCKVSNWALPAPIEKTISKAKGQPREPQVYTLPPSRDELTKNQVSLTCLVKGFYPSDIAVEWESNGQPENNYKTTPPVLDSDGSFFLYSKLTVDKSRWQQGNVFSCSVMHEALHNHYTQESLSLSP
light: B1 light
notes: homodimerized: alteration in both H chains; also called Ho Ab K326_20W
B31: GpH7-B3 variant P238_04F/GpL16-k0 (antibody, human IgG1, kappa)
heavy: not shown
light: B1 light
notes: homodimerized: alteration in both H chains; also called Ho Ab P238_04F
B32: GpH7-B3 variant L328_13S/GpL16-k0 (antibody, human IgG1, kappa)
heavy: not shown
light: B1 light
notes: homodimerized: alteration in both H chains; also called Ho Ab L328_13S
B33: GpH7-B3 variant K334_08L/GpL16-k0 (antibody, human IgG1, kappa)
heavy: not shown
light: B1 light
notes: homodimerized: alteration in both H chains; also called Ho Ab K334_08L
B34: GpH7-B3 variant P331_15Y/GpL16-k0 (antibody, human IgG1, kappa)
heavy: not shown
light: B1 light
notes: homodimerized: alteration in both H chains; also called Ho Ab P331_15Y
B35: GpH7-B3 variant K334_02A/GpL16-k0 (antibody, human IgG1, kappa)
heavy: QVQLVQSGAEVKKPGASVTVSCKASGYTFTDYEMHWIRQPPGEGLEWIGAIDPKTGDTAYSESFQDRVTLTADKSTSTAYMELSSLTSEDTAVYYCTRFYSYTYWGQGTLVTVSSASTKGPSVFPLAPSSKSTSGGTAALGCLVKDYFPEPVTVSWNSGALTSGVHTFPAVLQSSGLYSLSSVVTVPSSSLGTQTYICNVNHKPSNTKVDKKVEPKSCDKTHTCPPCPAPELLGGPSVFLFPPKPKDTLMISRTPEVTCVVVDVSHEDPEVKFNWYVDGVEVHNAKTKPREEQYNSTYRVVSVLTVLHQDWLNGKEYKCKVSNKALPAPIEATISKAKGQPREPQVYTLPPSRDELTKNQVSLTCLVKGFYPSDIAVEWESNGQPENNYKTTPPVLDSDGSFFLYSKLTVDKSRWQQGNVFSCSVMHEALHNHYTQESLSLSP
light: B1 light
notes: homodimerized: alteration in both H chains; also called Ho Ab K334_02A
B36: GpH7-B3 variant I336_08L/GpL16-k0 (antibody, human IgG1, kappa)
heavy: not shown
light: B1 light
notes: homodimerized: alteration in both H chains; also called Ho Ab I336_08L
B37: GpH7-B3 variant H268_01G/GpL16-k0 (antibody, human IgG1, kappa)
heavy: not shown
light: B1 light
notes: homodimerized: alteration in both H chains; also called Ho Ab H268_01G
B38: GpH7-B3 variant K326_08L/GpL16-k0 (antibody, human IgG1, kappa)
heavy: not shown
light: B1 light
notes: homodimerized: alteration in both H chains; also called Ho Ab K326_08L
B39: GpH7-B3 variant K326_03V/GpL16-k0 (antibody, human IgG1, kappa)
heavy: not shown
light: B1 light
notes: homodimerized: alteration in both H chains; also called Ho Ab K326_03V
B40: GpH7-B3 variant G237_04F/GpL16-k0 (antibody, human IgG1, kappa)
heavy: not shown
light: B1 light
notes: homodimerized: alteration in both H chains; also called Ho Ab G237_04F

One test addresses T1, FcγRIIb extracellular domain with …. The test can be described thus: SPR, relative binding, HeCon Ab = 100.
In the case of B1, the He/Con_2b was 105 % of control.

Turning to B2, the He/Con_2b was 106 % of control. As for B3, the He/Con_2b is 251 % of control.

Take B4: the He/Con_2b was 108 % of control. As for B5, the He/Con_2b was 108 % of control.

As for B6, the He/Con_2b is 103 % of control.

The next test concerns the target T2, FcγRIIa R extracellular domain with …. The test is described as follows: SPR (Biacore), relative FcγRIIa R binding, GpH7-B3/GpL16-k0 = 100. How it is done: Analysis of interaction between objective antibody and the FcγR was carried out using Biacore T100 (GE Healthcare). HBS-EP+ (GE Healthcare) was used as the running buffer, and the measurement temperature was set to 25° C. Chips produced by immobilizing the antigen peptide by the amine coupling method to a Series S Sencor Chip CM5 (GE Healthcare), or alternatively, chips produced by allowing preliminarily biotinylated antigen peptides to interact with and immobilize onto a Series S Sensor Chip SA (certified) (GE Healthcare) were used. Antibodies of interest were captured onto an antigen peptide-immobilized chip, and allowed to interact to each FcγR diluted with running buffer. To regenerate and repeatedly use the chip, the antibodies captured on the chip were washed off by reacting 10 mM glycine-HCl, pH 1.5.
Regarding B7, the Ho/Con_2aR was 102 % of control. On to B8, for which the Ho/Con_2aR is 102 % of control. As to B9, the Ho/Con_2aR was 116 % of control. The same measure, in the same setting: with B10 the figure was 120 % of control; with B11, 106 % of control.

With B12, the Ho/Con_2aR is 108 % of control. For the molecule B13, the Ho/Con_2aR was 102 % of control.

On to B14, for which the Ho/Con_2aR is 101 % of control. Same read-out and setting: then B15, with 105 % of control. As to B16, the Ho/Con_2aR is 106 % of control. On the same count and under the same terms, then B17, with 110 % of control; and B18, with 102 % of control. For the molecule B19, the Ho/Con_2aR was 114 % of control. Regarding B20, the Ho/Con_2aR was 106 % of control.

As for B21, the Ho/Con_2aR was 102 % of control.

As for B22, the Ho/Con_2aR was 104 % of control. Still for that read-out and setting: then B23, with 100 % of control.

As for B24, the Ho/Con_2aR was 118 % of control. As to B25, the Ho/Con_2aR was 107 % of control. As for B26, the Ho/Con_2aR is 133 % of control. On the same count and under the same terms, then B27, with 133 % of control; and B28, with 134 % of control; and B29, with 106 % of control. As to B30, the Ho/Con_2aR was 120 % of control. B31: the Ho/Con_2aR was 146 % of control. Turning to B32, the Ho/Con_2aR is 108 % of control. Take B33: the Ho/Con_2aR is 105 % of control. As for B34, the Ho/Con_2aR is 105 % of control. On to B35, for which the Ho/Con_2aR is 100 % of control.

On to B36, for which the Ho/Con_2aR was 105 % of control. Consider B37, for which the Ho/Con_2aR is 122 % of control.

Take B38: the Ho/Con_2aR is 131 % of control. Regarding B39, the Ho/Con_2aR is 139 % of control. With B40, the Ho/Con_2aR is 113 % of control.
